Laboratory results published in patent publication US20160375155A1 (COLLAGEN MEDICAL, published 2016).
One block for each binder: values may come before it. Bridge positions count the residues as written; N and C are the ends. Square brackets hold non-standard residues; d marks the D form. Ends that are not written are not given here. GdDOTAGA = Gd(III)-DOTAGA chelate, amide-linked; Bip = N[C@@H](Cc1ccc(-c2ccccc2)cc1)C(=O)O

Columns and labels:
Assay in all cases: dried collagen film in microtiter plate; unbound compound by ICP-MS (Gd); fit to 1 binding site
[1] = target: T1, human type I collagen (VitroCol solution, Advanced Biomatrix, cat#5007-A) (human, UniProt P02452 179-1192; P08123 91-1104, limits assumed)
T1 construct: In the assay the collagen was gelled and dried as a fibril film in microtiter wells; also called human collagen; Human Collagen Type I
Description: (§1) Ice-cold 1×PBS pH 10.8 is added to the collagen solution for a final collagen concentration of 10 μM, pH 7.4. Collagen solutions are gelled and dried down in the wells of a 96 well microtiter plate (Corning Polystyrene Flat Bottom, cat#3641). 70 μl of 10 μM collagen is aliquoted into each well in every other lane in the plate (48 wells) and the plate is incubated at 37° C. for 18 hours to form a gel and evaporate to dryness. Ungelled collagen is removed by washing the collagen films with 200 μl 1×PBS pH 7.4 (four times, 15 min per wash). The thin collagen fibril film remains, coating the bottom of each well. After washing by PBS the plate is again dried at 37° C. for 2 hours and is stored at −20° C. The final well content of gelled collagen is measured by determination of hydroxyproline and is around 180 μg/ml.
(§2) a serial dilution of 0.2 μM-30 μM of the peptide chelate is prepared in PBS, pH 7.4 (˜300 μL of solution for each concentration). 90 μl of each concentration is also reserved in a HPLC glass vial as a sample to measure the total concentration. 140 μL of each dilution of peptide chelate is added to wells containing and non-containing collagen (control for nonspecific plastic binging). The plate is then incubated on a shaker table (300 rpm) for 2 hours at room temperature to allow the compound to bind. After 2 hours the supernatant from each well (with or without collagen) is transferred to an HPLC glass vial. The concentration of free, unbound compound in the sample supernatants and the concentration of compound in the reserved (total) sample are determined by ICP-MS (Agilent 7500, gadolinium concentration). The concentration of compound bound to collagen is determined as [bound]=[total]−[unbound].
(§3) The binding of compounds to human, rat and dog collagen (5 μM) was measured over the concentration range 0.2-5 μM of Comp ID Nos.: 1-4. The binding data was fit to a model of 1 binding site.

[2] = target: T2, Canine collagen (Native canine Collagen Type I and III protein, YO protein AB, cat#739) (canine, UniProt Q9XSJ7 158-1214; O46392 80-1119)
T2 construct: The bought preparation is a mixture of native canine collagen types I and III, not one defined trimer; It was gelled and dried as a film in microtiter wells; also called dog collagen
Description: as §1, §2, §3

[3] = target: T3, rat collagen (acid soluble, type I, rat tail, Millipore Inc, cat#08-115) (rat, UniProt P02454 152-1207; P02466 86-1125)
T3 construct: In the assay the collagen was gelled and dried as a fibril film in microtiter wells; also called rat collagen type I
Description: as §1, §2, §3

T2 sequence (Q9XSJ7 158-1214, chain 1 of 2): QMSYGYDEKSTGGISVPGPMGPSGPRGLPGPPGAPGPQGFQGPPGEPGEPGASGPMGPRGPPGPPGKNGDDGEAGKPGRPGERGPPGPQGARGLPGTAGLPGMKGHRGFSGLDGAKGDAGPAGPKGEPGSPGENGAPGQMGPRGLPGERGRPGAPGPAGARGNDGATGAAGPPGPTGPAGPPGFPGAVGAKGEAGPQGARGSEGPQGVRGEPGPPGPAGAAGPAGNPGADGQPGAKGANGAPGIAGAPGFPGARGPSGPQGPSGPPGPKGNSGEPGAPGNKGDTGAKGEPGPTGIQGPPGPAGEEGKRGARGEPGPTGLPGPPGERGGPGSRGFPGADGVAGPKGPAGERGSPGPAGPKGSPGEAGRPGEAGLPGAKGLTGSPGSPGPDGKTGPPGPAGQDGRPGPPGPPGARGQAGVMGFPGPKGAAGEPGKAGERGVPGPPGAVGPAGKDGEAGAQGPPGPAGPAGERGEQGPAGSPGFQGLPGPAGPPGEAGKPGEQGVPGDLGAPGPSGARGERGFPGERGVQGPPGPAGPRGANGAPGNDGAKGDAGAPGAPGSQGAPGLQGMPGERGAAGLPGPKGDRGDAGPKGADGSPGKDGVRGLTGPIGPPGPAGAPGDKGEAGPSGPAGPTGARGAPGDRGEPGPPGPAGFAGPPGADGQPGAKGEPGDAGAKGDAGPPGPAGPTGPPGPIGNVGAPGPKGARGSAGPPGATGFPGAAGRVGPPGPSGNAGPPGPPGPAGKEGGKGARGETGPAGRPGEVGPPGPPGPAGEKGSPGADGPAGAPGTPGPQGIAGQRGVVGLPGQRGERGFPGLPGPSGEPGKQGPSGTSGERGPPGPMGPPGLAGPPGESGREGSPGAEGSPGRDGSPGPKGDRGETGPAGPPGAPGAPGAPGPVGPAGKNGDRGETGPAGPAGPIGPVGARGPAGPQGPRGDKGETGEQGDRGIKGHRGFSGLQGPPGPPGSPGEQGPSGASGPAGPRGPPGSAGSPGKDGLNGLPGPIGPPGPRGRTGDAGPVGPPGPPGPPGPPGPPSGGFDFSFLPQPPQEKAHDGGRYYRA
T2 sequence (O46392 80-1119, chain 2 of 2): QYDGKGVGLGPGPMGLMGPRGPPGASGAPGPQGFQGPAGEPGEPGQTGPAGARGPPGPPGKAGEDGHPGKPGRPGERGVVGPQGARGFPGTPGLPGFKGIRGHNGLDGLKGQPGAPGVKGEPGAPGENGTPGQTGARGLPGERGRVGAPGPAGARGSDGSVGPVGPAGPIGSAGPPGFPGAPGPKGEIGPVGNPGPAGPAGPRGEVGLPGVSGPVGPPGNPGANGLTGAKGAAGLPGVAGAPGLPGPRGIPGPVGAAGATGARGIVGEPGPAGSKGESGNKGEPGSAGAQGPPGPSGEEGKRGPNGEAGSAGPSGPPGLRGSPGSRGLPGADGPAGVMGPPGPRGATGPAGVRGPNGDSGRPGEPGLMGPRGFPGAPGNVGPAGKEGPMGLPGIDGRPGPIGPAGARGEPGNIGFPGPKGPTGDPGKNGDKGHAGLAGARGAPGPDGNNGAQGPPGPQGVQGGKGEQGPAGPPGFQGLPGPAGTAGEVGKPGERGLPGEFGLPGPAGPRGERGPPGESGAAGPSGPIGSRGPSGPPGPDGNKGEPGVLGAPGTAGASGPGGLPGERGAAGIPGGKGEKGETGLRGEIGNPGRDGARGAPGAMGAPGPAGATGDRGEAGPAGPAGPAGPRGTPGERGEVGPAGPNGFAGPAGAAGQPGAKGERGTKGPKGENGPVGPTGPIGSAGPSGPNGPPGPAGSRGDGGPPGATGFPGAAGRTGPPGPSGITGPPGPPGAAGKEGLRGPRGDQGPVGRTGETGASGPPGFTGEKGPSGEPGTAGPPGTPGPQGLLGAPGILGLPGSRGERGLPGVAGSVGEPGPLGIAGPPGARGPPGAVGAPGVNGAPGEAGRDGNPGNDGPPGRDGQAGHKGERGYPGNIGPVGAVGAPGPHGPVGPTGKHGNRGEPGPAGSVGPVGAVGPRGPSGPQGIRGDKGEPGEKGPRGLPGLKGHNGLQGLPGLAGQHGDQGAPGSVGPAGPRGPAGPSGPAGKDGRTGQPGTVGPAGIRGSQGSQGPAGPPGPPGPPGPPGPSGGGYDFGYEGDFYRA
T1 sequence (P02452 179-1192 limits assumed, chain 1 of 2): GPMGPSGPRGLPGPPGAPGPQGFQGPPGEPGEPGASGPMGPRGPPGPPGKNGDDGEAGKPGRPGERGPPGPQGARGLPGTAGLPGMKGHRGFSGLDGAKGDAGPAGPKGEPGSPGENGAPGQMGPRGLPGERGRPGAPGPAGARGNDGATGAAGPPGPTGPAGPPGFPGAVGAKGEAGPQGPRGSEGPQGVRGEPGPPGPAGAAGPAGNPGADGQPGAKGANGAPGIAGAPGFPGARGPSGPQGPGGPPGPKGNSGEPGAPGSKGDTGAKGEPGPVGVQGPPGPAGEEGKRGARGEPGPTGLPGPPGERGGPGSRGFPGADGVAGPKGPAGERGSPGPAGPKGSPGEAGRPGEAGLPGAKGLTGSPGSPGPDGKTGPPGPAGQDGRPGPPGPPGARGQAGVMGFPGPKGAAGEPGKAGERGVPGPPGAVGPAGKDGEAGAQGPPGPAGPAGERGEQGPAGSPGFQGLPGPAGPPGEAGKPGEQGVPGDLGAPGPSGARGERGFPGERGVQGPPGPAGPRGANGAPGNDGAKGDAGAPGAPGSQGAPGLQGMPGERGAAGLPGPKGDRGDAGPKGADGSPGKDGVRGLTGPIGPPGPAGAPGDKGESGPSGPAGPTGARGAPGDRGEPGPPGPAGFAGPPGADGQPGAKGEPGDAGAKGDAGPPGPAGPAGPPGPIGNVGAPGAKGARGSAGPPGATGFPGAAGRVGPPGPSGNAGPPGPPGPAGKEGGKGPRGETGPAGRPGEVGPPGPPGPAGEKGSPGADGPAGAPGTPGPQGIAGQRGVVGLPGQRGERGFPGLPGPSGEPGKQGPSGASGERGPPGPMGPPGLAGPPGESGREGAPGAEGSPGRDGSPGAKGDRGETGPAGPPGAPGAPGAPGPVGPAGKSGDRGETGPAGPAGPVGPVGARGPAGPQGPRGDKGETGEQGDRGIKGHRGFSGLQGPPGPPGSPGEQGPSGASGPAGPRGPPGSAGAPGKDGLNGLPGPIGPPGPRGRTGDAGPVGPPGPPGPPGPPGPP
T1 sequence (P08123 91-1104 limits assumed, chain 2 of 2): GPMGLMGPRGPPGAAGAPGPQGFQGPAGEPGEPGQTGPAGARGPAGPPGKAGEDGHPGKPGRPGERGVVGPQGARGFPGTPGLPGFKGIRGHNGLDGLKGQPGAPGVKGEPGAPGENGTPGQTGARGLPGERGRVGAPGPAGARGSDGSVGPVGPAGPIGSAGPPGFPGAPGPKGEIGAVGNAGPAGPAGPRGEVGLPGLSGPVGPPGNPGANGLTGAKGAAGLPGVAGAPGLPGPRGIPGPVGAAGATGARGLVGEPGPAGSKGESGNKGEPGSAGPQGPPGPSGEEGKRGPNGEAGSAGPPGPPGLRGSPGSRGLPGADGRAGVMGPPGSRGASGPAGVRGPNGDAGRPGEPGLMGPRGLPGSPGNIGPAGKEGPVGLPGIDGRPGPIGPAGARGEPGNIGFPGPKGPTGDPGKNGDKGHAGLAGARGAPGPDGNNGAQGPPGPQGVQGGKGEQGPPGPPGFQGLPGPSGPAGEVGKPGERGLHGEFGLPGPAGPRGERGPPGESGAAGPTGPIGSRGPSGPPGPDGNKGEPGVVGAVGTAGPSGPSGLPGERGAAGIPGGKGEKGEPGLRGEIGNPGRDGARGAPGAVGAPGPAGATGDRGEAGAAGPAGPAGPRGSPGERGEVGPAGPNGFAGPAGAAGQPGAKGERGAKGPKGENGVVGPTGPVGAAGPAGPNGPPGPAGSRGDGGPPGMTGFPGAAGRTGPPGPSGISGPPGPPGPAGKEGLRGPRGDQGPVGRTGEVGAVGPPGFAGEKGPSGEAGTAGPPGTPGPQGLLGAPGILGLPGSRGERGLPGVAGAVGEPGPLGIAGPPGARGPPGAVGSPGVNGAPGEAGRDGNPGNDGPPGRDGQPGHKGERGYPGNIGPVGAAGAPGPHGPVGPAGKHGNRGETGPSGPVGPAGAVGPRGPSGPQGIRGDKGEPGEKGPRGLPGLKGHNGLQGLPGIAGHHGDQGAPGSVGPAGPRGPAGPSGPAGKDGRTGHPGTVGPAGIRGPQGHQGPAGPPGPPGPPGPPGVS

Kd [1]: 29.8 µM
B1: Compound ID No. 3 (peptide)
peptide: GdDOTAGA-K(GdDOTAGA)YWHCTTK(GdDOTAGA)FPHHYCLY[Bip]-NH2
modifications: disulfide 5-14
notes: Tested as the Gd(III)-DOTAGA chelate conjugate of the cyclic peptide; also called CMPD ID 3

Kd [2]: 4.9 µM | Kd [3]: 20.6 µM | Kd [1]: 4.9 µM
B2: Compound ID No. 2 (peptide)
peptide: GdDOTAGA-K(GdDOTAGA)WHCTTK(GdDOTAGA)FPHHYCLY[Bip]-NH2
modifications: disulfide 4-13
notes: Tested as the Gd(III)-DOTAGA chelate conjugate of the cyclic peptide; also called CMPD ID 2

Kd [2]: 2 µM | Kd [3]: 4.6 µM | Kd [1]: 9.6 µM
B3: Compound ID No. 4 (peptide)
peptide: KWHCYTKFPHHYCVY[Bip]-NH2
modifications: disulfide 4-13; not fully specified (residues 1, 7, N-terminus); printed as K-W-H-C-Y-T-K-F-P-H-H-Y-C-V-Y-Bip; also: GdDOTAGA on N-terminal amine or lysine epsilon amino groups
notes: Tested as the Gd(III)-DOTAGA chelate conjugate of the cyclic peptide; also called CMPD ID 4

Kd [2]: 4.4 µM | Kd [3]: 21.1 µM | Kd [1]: 3.8 µM
B4: Compound ID No. 1 (peptide)
peptide: GKWHCTTKFPHHYCLY
modifications: Bip (L-4,4'-biphenylalanine) at position 17; C-terminal amide (NH2); cyclized through Cysteine-Cysteine disulfide bond (Cys5-Cys14); GdDOTAGA coupled by amide bonds to the primary amines (N-terminal amine and lysine epsilon amino groups)
notes: Tested as the Gd(III)-DOTAGA chelate conjugate of the cyclic peptide; also called CMPD ID 1; Comp ID No. 1
